Values of other authors as cited in patent US5389611A, “Lactoferrin hydrolyzate for use as an antibacterial agent and as a tyrosinase inhibition agent” (priority 1990, dated 1995).
Where two headings read alike, the source gives them in different places.

How the values were obtained:
[1] = system: coliform bacillus (Escherichia coli), staphylococcus and other enterobacteria; settings: Nonnecke and Smith 1984
[2] = Ford et al 1977

In the case of lactoferrin, the “concentration having antibacterial activity” value [1] is given as 0.5 to 30 mg/mL, the “antibacterial activity after heating” value ([2]; heating at 62.5° C. for 30 minutes) is given as “almost completely suppressed” and the “antibacterial activity after heating” value ([2]; heating at 70° C. for 15 minutes) is given as “complete deactivation”.
